Molecular target: microtubules (MTs) polymerised from porcine brain tubulin, taxol-stabilised (porcine) (UniProt P02550)
Test: co-sedimentation; GST-rMap7D2 proteins incubated with 0.4 mg/ml taxol-stabilised MTs in polymerization buffer (80 mM PIPES/NaOH pH 6.8, 1 mM MgCl2, 1 mM EGTA, 1 mM GTP) with 15 μM taxol, 20 min at 37°C; centrifuged at 100,000g for 30 min at 37°C through a 50% sucrose cushion; supernatant and pellet by SDS-PAGE, CBB staining, densitometer; Scatchard analysis

Substance “GST-rMap7D2 (full length) (from UniProt D4A4L4 1-763) (natural protein)” has a Kd of 600 nM and a stoichiometry N (scale: tubulin α/β heterodimers per GST-rMap7D2 molecule) of 10.
